Measured values from US20240002497A1 (Merck Sharp & Dohme, published 2024).
Read-outs that look alike come from different tables or passages of the source.

Columns and labels:
[1] = molecular target: huNav1.7α + β1 on HEK cells (human, UniProt Q15858 1-1988; Q07699 19-218); assay: binding FACS, HEK cells (HEKa/b1)
[2] = molecular target: T1, huNav1.7α (human Nav1.7 alpha subunit, expressed without β subunits) (human, UniProt Q15858 1-1988); assay: binding FACS, HEKa cells
T1 construct: also called HEK293 human Nav1.7α; HEKa Nav1.7α

[3] = molecular target: T2, huNav1.7α + β1 (human Nav1.7α co-expressed with Navβ1) (human, UniProt Q15858 1-1988; Q07699 19-218); assay: binding FACS, HEKa/β1 cells
T2 construct: also called HEK293 human Nav1.7α + β1; HEKa/β1 Nav1.7α

huNav1.7α [4] = molecular target: T3, huNav1.7α (human, UniProt Q15858 1-1988); assay: binding FACS, HEKa cells
T3 construct: HEK cells expressing the α subunit alone; also called HEKa; HEK huNav1.7α
Experimental: Binding of the ISVDs to cell-expressed Nav1.7α was detected via murine anti-Flag (Sigma, catalog #F1804). Briefly, cells were resuspended in FACS buffer (PBS, 10% FBS, NaN₃) and transferred to a 96-well V-bottom plate at 1×10^5 cells/well. Purified FLAG3-tagged ISVD was diluted in FACS buffer and added to the cells for 30 minutes at 4° C. […] Prior to the read-out, the samples were resuspended in 1 μg/mL propidium iodide (Sigma, catalog #P4170) to exclude dead cells. Between each step, the cells were centrifuged for 5 minutes at 200 grams and washed with 100 μL/well FACS buffer.

huNav1.7α+β1 [5] = molecular target: T4, huNav1.7α+β1 (human, UniProt Q15858 1-1988; Q07699 19-218); assay: binding FACS, HEKa/β1 cells
T4 construct: also called huNav1.7-beta1; HEKa/β1
Procedure, shortened: (§1)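 Cells are first suspended in FACS buffer at 1×10^5 per well. Next, FLAG3-tagged ISVD is added for 30 minutes at 4° C, and binding is then detected with murine anti-Flag. Finally, samples go into 1 μg/mL propidium iodide before flow cytometry.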

huNav1.7α+β1-β2-β3 = molecular target: T5, huNav1.7α+β1-β2-β3 (human, UniProt Q15858 1-1988; Q07699 19-218; O60939 30-215; Q9NY72 23-215); assay: binding FACS, CHO FlpIn cells
T5 construct: 5N11S variant; also called huNav1.7-beta1-beta2-beta3; huNav1.7α+Navβ1-Navβ2-Navβ3
Procedure, shortened: as §1

rhNav1.7α + β1-β2-β3 = rhNav1.7α + β1-β2-β3 (rhesus monkey); assay: cell-based or functional assay
huNav1.7α + β1 = huNav1.7α + β1 (human); assay: cell-based or functional assay
huNav1.7α [6] = molecular target: T3, huNav1.7α; assay: cell-based or functional assay
rhNav1.7α = rhNav1.7α (rhesus monkey, UniProt Q15858 1-1988 (human entry)); assay: cell-based or functional assay
rhNav1.7α+β1-β2-β3 = molecular target: T6, rhNav1.7α+β1-β2-β3 (rhesus monkey α subunit with human β …); assay: binding FACS, CHO FlpIn cells
T6 construct: P2A cleaves it into α, β1, β2, β3; also called rhNav1.7-beta1-beta2-beta3

huNav1.7α [7] = molecular target: T3, huNav1.7α; assay: binding FACS, HEKa cells; remark: listed apart in the source
huNav1.7α+β1 [8] = molecular target: T4, huNav1.7α+β1; assay: binding FACS, HEKa/β1 cells; remark: listed apart in the source

Binder	EC50 (huNav1.7α [4]) [nM]	EC50 (huNav1.7α+β1 [5]) [nM]	EC50 (huNav1.7α+β1-β2-β3) [nM]	EC50 (rhNav1.7α+β1-β2-β3) [nM]	further results
F010301639 (VHH, also called F0103275B05(R76_V78insT)(L11V, R39Q, T83R, V89L)) VHH: EVQLVESGGGVVQPGGSLRLSCAASGSIFNINSMAWYRQAPGKQRELVASSTNGGSTNYADSVKGRFTISRDNAKRTVYLQMNSLRPEDTALYYCNALLQPSIYDISRTYWGQGTLVTVSS					EC50 [1]: 94 nM
F010301640 (VHH, also called F0103275B05(R76_V78insT)(L11V, T83R, V89L)) VHH: EVQLVESGGGVVQPGGSLRLSCAASGSIFNINSMAWYRRAPGKQRELVASSTNGGSTNYADSVKGRFTISRDNAKRTVYLQMNSLRPEDTALYYCNALLQPSIYDISRTYWGQGTLVTVSS					EC50 [1]: 65 nM
F010301556 (VHH, also called F0103387G05(D23A, D53G, D54G, D58G)) VHH: EVQLVESGGGLVQAGGSLRLSCAASGRILRIGYMRWHRQGAGKQREFVARITGGSATGYADSVKGRFTISRDNAKNTVYLQMNNLNPEDTAVYYCEALVTASVRGGSIHSGTYWGRGTLVTVSS					EC50 [2]: 1.8 nM; EC50 [3]: 1.4 nM
F010301563 (VHH, also called F0103387G05(D23A, D58G)) VHH: EVQLVESGGGLVQAGGSLRLSCAASGRILRIGYMRWHRQGAGKQREFVARITDDSATGYADSVKGRFTISRDNAKNTVYLQMNNLNPEDTAVYYCEALVTASVRGGSIHSGTYWGRGTLVTVSS					EC50 [2]: 1.5 nM; EC50 [3]: 1 nM
F010301559 (VHH, vs 387G05: D23A, D54G, D58G) VHH: EVQLVESGGGLVQAGGSLRLSCAASGRILRIGYMRWHRQGAGKQREFVARITDGSATGYADSVKGRFTISRDNAKNTVYLQMNNLNPEDTAVYYCEALVTASVRGGSIHSGTYWGRGTLVTVSS	0.87	0.92	1.8		
F010301849 (VHH, also called F0103387G05(L11V, A14P, D23A, G40A, A41P, D58G, N82bS, N83R, V89L, R105Q)) VHH: EVQLVESGGGVVQPGGSLRLSCAASGRILRIGYMRWHRQAPGKQREFVARITDDSATGYADSVKGRFTISRDNAKNTVYLQMNSLRPEDTALYYCEALVTASVRGGSIHSGTYWGQGTLVTVSS					Bmax [2]: 100%; EC50 [2]: 3 nM; EC50 [3]: 1.8 nM
F010302383 (VHH) VHH: EVQLVESGGGVVQPGGSLRLSCAASGPVFNINRMAWYRQAPGKQRELVAYVTPTGDISYADSVKGRFTISRGGSKRVYLQMNSLRPEDTALYYCRALLQPSSYSGTRTYWGQGTLVTVSS					Qpatch IC50 (rhNav1.7α + β1-β2-β3): 3 nM; Qpatch IC50 (huNav1.7α + β1): 22 nM
F010300316 (VHH, vs F0103275B05: T57W) VHH: EVQLVESGGGLVQPGGSLRLSCAASGSIFNINSMAWYRRAPGKQRELVASSTNGGSWNYADSVKGRFTISRDNAKRVYLQMNSLTPEDTAVYYCNALLQPSIYDISRTYWGQGTLVTVSS				170	2-pulse IC50 [M], P1 (huNav1.7α [6]): 2e-06 M; 2-pulse IC50 [M], P2 (huNav1.7α [6]): 1e-06 M; 2-pulse IC50 [M], P1 (rhNav1.7α): 5e-06 M; 2-pulse IC50 [M], P2 (rhNav1.7α): 4e-06 M
F010301462 (VHH, vs F0103275B05: S27P, I28V, S33R, S50Y, N53P, S56D, N93R) VHH: EVQLVESGGGLVQPGGSLRLSCAASGPVFNINRMAWYRRAPGKQRELVAYSTPGGDTNYADSVKGRFTISRDNAKRVYLQMNSLTPEDTAVYYCRALLQPSIYDISRTYWGQGTLVTVSS				23	EC50 (huNav1.7α [7]): 35 nM; EC50 (huNav1.7α+β1 [8]): 22 nM
F010301461 (VHH, also called F0103275B05(S33R, S50Y, S56D, N93R)) VHH: EVQLVESGGGLVQPGGSLRLSCAASGSIFNINRMAWYRRAPGKQRELVAYSTNGGDTNYADSVKGRFTISRDNAKRVYLQMNSLTPEDTAVYYCRALLQPSIYDISRTYWGQGTLVTVSS				24	EC50 (huNav1.7α [7]): 28 nM; EC50 (huNav1.7α+β1 [8]): 21 nM
F010301459 (VHH, vs F0103275B05: S27P, I28V, S33R, N53P, S56D, N93R) VHH: EVQLVESGGGLVQPGGSLRLSCAASGPVFNINRMAWYRRAPGKQRELVASSTPGGDTNYADSVKGRFTISRDNAKRVYLQMNSLTPEDTAVYYCRALLQPSIYDISRTYWGQGTLVTVSS				23	EC50 (huNav1.7α [7]): 22 nM; EC50 (huNav1.7α+β1 [8]): 18 nM
F010301460 (VHH, vs F0103275B05: S27P, I28V, S33R, S50Y, N53P, N93R) VHH: EVQLVESGGGLVQPGGSLRLSCAASGPVFNINRMAWYRRAPGKQRELVAYSTPGGSTNYADSVKGRFTISRDNAKRVYLQMNSLTPEDTAVYYCRALLQPSIYDISRTYWGQGTLVTVSS				32	EC50 (huNav1.7α [7]): 15 nM; EC50 (huNav1.7α+β1 [8]): 26 nM
F010301000 (VHH, vs F0103275B05: S27P, I28V, S33R, S50Y, N53P, S56D, T101I) VHH: EVQLVESGGGLVQPGGSLRLSCAASGPVFNINRMAWYRRAPGKQRELVAYSTPGGDTNYADSVKGRFTISRDNAKRVYLQMNSLTPEDTAVYYCNALLQPSIYDISRIYWGQGTLVTVSS				40	EC50 (huNav1.7α [7]): 8.5 nM; EC50 (huNav1.7α+β1 [8]): 60 nM
F010300796 (VHH, vs F0103275B05: S27P, I28V, S33R, S50Y, N53P, S56D) VHH: EVQLVESGGGLVQPGGSLRLSCAASGPVFNINRMAWYRRAPGKQRELVAYSTPGGDTNYADSVKGRFTISRDNAKRVYLQMNSLTPEDTAVYYCNALLQPSIYDISRTYWGQGTLVTVSS				44	EC50 (huNav1.7α [7]): 5.8 nM; EC50 (huNav1.7α+β1 [8]): 38 nM
F010300468 (VHH, vs F0103275B05: N93R; also called F0103275B05(N93R)+FLAG3-HIS6; F103275B05(N93R)) VHH: EVQLVESGGGLVQPGGSLRLSCAASGSIFNINSMAWYRRAPGKQRELVASSTNGGSTNYADSVKGRFTISRDNAKRVYLQMNSLTPEDTAVYYCRALLQPSIYDISRTYWGQGTLVTVSS				40	2-pulse IC50 [M], P1 (huNav1.7α [6]): 5e-06 M; 2-pulse IC50 [M], P2 (huNav1.7α [6]): 4e-06 M; 2-pulse IC50 [M], P1 (rhNav1.7α): 6e-06 M; 2-pulse IC50 [M], P2 (rhNav1.7α): 3e-06 M

Further lines, with some results ahead:

EC50 (huNav1.7α [4]) [nM]	EC50 (huNav1.7α+β1 [5]) [nM]	EC50 (huNav1.7α+β1-β2-β3) [nM]	EC50 (rhNav1.7α+β1-β2-β3) [nM]	Binder	further results
1.5	1	1.9		F010301563 (VHH, also called F0103387G05(D23A, D58G); F0103301563) VHH: EVQLVESGGGLVQAGGSLRLSCAASGRILRIGYMRWHRQGAGKQREFVARITDDSATGYADSVKGRFTISRDNAKNTVYLQMNNLNPEDTAVYYCEALVTASVRGGSIHSGTYWGRGTLVTVSS	
1.9	2.4	3.5		F010301564 (VHH, vs 387G05: D53G, D54G) VHH: EVQLVESGGGLVQAGGSLRLSCDASGRILRIGYMRWHRQGAGKQREFVARITGGSATDYADSVKGRFTISRDNAKNTVYLQMNNLNPEDTAVYYCEALVTASVRGGSIHSGTYWGRGTLVTVSS	
1.2	1.9	2.5		F010301562 (VHH, vs 387G05: D23A, D54G) VHH: EVQLVESGGGLVQAGGSLRLSCAASGRILRIGYMRWHRQGAGKQREFVARITDGSATDYADSVKGRFTISRDNAKNTVYLQMNNLNPEDTAVYYCEALVTASVRGGSIHSGTYWGRGTLVTVSS	
1.2	1.1	2.1		F010301560 (VHH, vs 387G05: D53G, D54G, D58G) VHH: EVQLVESGGGLVQAGGSLRLSCDASGRILRIGYMRWHRQGAGKQREFVARITGGSATGYADSVKGRFTISRDNAKNTVYLQMNNLNPEDTAVYYCEALVTASVRGGSIHSGTYWGRGTLVTVSS	
2.2	1.2	2.5		F010301561 (VHH, vs 387G05: D23A, D53G) VHH: EVQLVESGGGLVQAGGSLRLSCAASGRILRIGYMRWHRQGAGKQREFVARITGDSATDYADSVKGRFTISRDNAKNTVYLQMNNLNPEDTAVYYCEALVTASVRGGSIHSGTYWGRGTLVTVSS	
1.4	1	2.1		F010301565 (VHH, vs 387G05: D53G, D58G) VHH: EVQLVESGGGLVQAGGSLRLSCDASGRILRIGYMRWHRQGAGKQREFVARITGDSATGYADSVKGRFTISRDNAKNTVYLQMNNLNPEDTAVYYCEALVTASVRGGSIHSGTYWGRGTLVTVSS	
1.2	1	2.2		F010301566 (VHH, vs 387G05: D54G, D58G) VHH: EVQLVESGGGLVQAGGSLRLSCDASGRILRIGYMRWHRQGAGKQREFVARITDGSATGYADSVKGRFTISRDNAKNTVYLQMNNLNPEDTAVYYCEALVTASVRGGSIHSGTYWGRGTLVTVSS	
